Reference: paper PMC2673096

Biological target: FLAG-HA-HA (F2H)-tagged tbRAP1 at its endogenous locus (Trypanosoma brucei (endogenous locus in T. brucei cells))
Assay: co-IP

endogenous tbTRF (natural protein)
percent co-immunoprecipitated: 10%
